According to patent US20040052794:

Key:
[1] = target: p53 wild-type (Homo sapiens) (UniProt P04637); test: pulldown; conditions: 100 mM NaCl; positive control
[2] = system: luciferase; test: pulldown; conditions: 100 mM NaCl; negative control
[3] = target: RB18A D9 product (aa 436-1566) (Homo sapiens) (UniProt Q15648); test: pulldown; conditions: 100 mM NaCl
[4] = system: p53 wild-type His-tag (Homo sapiens); conditions: strand annealing initial rate, 20 nM protein, 37 C
[5] = target: GST-RB18A-N2 (Homo sapiens) (UniProt Q15648); conditions: strand annealing initial rate, 20 nM protein, 37 C
Chain of GST-RB18A-N2 (Homo sapiens) (Q15648 1249-1581): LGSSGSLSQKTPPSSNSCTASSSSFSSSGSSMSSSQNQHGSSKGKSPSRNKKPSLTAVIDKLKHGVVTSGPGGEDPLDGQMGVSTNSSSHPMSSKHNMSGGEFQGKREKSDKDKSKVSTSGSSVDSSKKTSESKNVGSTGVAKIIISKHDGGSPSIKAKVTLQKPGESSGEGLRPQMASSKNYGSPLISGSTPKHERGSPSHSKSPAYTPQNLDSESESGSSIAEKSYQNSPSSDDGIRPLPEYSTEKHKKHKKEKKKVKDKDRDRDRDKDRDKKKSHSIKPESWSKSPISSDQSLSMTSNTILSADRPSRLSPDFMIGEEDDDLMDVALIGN

Chain of RB18A D9 product (aa 436-1566) (Homo sapiens) (Q15648 other isoform, or with tags, fused parts or gaps): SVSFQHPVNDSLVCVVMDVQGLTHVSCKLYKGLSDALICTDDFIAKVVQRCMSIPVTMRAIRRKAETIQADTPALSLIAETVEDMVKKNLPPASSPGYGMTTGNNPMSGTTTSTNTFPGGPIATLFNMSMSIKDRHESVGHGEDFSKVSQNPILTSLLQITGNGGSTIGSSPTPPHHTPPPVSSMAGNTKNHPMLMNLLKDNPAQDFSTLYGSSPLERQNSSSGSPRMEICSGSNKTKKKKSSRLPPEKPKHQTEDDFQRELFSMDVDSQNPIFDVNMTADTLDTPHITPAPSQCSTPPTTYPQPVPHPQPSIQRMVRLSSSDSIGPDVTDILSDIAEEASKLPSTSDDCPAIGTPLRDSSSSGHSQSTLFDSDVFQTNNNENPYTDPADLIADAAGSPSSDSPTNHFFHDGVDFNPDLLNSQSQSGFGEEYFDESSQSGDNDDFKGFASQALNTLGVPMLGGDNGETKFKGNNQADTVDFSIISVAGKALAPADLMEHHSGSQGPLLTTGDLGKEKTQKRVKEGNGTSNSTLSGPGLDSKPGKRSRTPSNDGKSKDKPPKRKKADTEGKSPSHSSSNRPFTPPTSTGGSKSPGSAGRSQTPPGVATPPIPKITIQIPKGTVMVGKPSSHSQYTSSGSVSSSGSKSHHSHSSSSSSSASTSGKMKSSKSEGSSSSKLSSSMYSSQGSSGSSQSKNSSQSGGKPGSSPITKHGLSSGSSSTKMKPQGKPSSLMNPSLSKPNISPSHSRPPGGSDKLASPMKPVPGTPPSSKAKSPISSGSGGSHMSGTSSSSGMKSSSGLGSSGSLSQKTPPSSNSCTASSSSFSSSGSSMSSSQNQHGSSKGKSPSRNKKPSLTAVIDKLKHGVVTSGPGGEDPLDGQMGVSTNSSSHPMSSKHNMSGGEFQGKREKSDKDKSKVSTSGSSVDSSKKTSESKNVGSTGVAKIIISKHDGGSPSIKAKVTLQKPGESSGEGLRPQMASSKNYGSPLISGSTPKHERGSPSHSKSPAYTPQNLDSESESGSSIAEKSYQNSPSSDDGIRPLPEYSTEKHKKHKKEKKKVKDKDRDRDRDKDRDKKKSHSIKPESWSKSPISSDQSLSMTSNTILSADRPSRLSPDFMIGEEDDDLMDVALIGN
Chain of p53 wild-type (Homo sapiens) (P04637 whole entry): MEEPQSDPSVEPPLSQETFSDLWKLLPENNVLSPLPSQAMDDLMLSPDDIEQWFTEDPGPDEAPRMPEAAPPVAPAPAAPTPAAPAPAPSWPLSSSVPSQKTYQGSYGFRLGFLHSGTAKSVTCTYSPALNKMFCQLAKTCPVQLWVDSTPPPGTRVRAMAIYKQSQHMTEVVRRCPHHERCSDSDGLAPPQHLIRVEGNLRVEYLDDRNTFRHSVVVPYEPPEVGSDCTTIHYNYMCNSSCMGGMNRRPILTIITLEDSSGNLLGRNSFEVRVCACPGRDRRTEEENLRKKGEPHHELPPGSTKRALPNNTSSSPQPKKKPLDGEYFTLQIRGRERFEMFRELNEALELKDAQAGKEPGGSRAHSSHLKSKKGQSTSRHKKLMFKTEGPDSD

Substance	binding (% of input retained) [1]	binding (% of input retained) [2]	binding (% of input retained) [3]	activity [4] [%/min]	activity [5] [%/min]
double-stranded DNA-cellulose	20	< 0.1	20		
phiX174 HaeIII 194 bp fragment, heat denatured				5.9	14
